Assay results reported in US9144594B2, “Cathepsin L mediated diseases and associated methods and products” (University of Miami, priority 2005, dated 2015).
“Also recorded” adds a separate entry of the source.

Key:
mice = assay: Protein in urine after in vivo gene delivery of dynamin mutants into healthy mice (Bradford); design: species or system mouse; settings: for proteinuria after gene delivery, in words: healthy mice
Experimental: Next, the level of urinary protein loss following gene delivery of dynamin mutants was examined (Table 2). […] The expression of K44A was associated with severe proteinuria (1.18 mg/ml) at peak gene expression time of 10 hours post injection. The reduction in gene expression was paralleled by a reduction in proteinuria (0.77 mg/ml). Gene transfer of dynR725A caused an increase in proteinuria (0.58 mg/ml). Although this was not a significant increase, it is probable that it is a consequence of the partial podocyte FP effacement seen after gene transfer of dynR725A, and due to increase in the stress fibers formation observed in cultured podocytes.
To explore whether functional dynamin is required for the maintenance of FP morphology in healthy kidneys, it was examined whether expression of dominant negative dynK44A disrupts podocyte function. […] In contrast, podocin driven expression of dynK44A, the dynamin mutant that cannot bind GTP, caused FP effacement (FIG. 21B) and proteinuria (1.1±0.26 mg/ml) at the peak of gene expression […] after gene delivery (FIGS. 21D and 25C). […] In other words, tight regulation of the life-time of the GTP-bound form of dynamin appears to be required for normal FP morphology and ultrafiltration.
CatL plasmids encoding short and long CatL (Goulet et al., Biol Chem 387, 1285-1293 (2004)), Dyn1 plasmids (pcDNA-driven) or p2.5 Podocin-driven (Moeller et al., Genesis 35, 39-42 (2003)) were introduced into mice (n>10, each construct) using the TransIT in vivo gene delivery system according to the manufacturer's instruction (Mirus Bio Corporation, Madison, Wis.). 10 and 24 h after gene delivery, proteinuria was assessed by Multistix 8 SG strips (Bayer Corporation, Elkhart, Ind.), and Bradford protein assay (Sigma, Saint Louis, Mo.). From the same urines the protein creatinine ratio was determined with Albuwell M and Creatinine Companion protein creatinine ELISA kits (Exocell Inc., Philadelphia, Pa.).

cathepsin L = assay: Generation of dynamin p40 fragment in LPS-treated cultured podocytes (Western blot); format: cell-based, mouse; settings: podocytes expressing the variant, LPS-treated
cathepsin L, sequence (P06797 114-333 limits assumed): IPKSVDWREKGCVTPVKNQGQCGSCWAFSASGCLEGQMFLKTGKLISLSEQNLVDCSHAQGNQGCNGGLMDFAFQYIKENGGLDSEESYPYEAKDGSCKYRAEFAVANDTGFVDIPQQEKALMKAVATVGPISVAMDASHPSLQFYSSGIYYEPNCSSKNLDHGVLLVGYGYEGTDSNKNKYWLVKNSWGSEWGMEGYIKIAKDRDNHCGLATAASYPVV
Source text: Next, it was examined whether cathepsin L could process dynamin in vivo, and whether this processing required GTP binding by dynamin. To this end, cultured podocytes were infected with adenoviruses expressing dynWT as well as different dynamin mutants. Infected podocytes were subsequently treated with LPS. LPS treatment increases cathepsin L presence and the activity in the cytosol (FIG. 3), and thus is expected to induce generation of the 40 kD proteolytic fragment. Respective cytosols were probed using the GTPase antibodies in order to detect N-terminal 40 kD proteolytic fragment. Expression of dynWT in podocytes treated with LPS identified proteolytic fragments that traveled with the same mobility as fragments observed in vitro. […] Furthermore, significant amount of p40 was present in cells expressing dynR725A prior to LPS treatment. […] Given complete protection of cathepsin L cleavage by GTPγS, it was reasoned that LPS treatment was somehow inducing dynR725A self-assembly, which in turn was protecting dynR725A from cathepsin L cleavage. This in turn would explain ability of dynR725A to counteract LPS and PAN treatment (FIG. 1D). […] Biochemical difference between dynWT, dynK694A and dynR725A is that only dynR725A is impaired in the rate of GTP-hydrolysis of assembled dynamin. This is important because GTP-hydrolysis drives disassemble of dynamin. Thus, while all three dynamins are predicted to self-assemble by LPS treatment, only dynR725A will stay assembled due to its inability to hydrolyze GTP. Once assembled dynWT and dynK694A hydrolyze GTP they will fall apart and thus become accessible for cathepsin L cleavage.
To explore CatL-mediated dynamin cleavage in vivo, cultured podocytes were infected with adenoviruses encoding different dynamin mutants and subsequently treated with LPS (FIG. 19G). […] To confirm the identity of the cleavage site, the ELSGGA (SEQ ID NO.29) sequence was mutated to EQSVGA (SEQ ID NO.31) (for simplicity, the mutant is subsequently referred to as dynL356Q). […] Finally, a GTPase-defective dynamin mutant was examined. Dynamin carrying a mutation in its […] (dynR725A) oligomerizes, but is impaired in assembly-stimulated GTP-hydrolysis. DynR725A is therefore predicted to live longer in the assembled state.
Podocytes were grown under non-permissive conditions to 70% confluence. Cells were washed twice with 1×PBS and infected with 1.2 ml of serum-free DMEM media containing 100 μl transactivator virus, 100 μl virus expressing dyn1 or dyn2. After 2 h of infection at 37° C., media containing virus was replaced with full DMEM. If cells were treated with LPS or PAN, 50 μg/ml of LPS or 50 μg/ml PAN was added at this point. 18-24 h post-infection, cells were detached using trypsin and processed either for subcellular fractionation or tested in the motility assays as described in (Reiser et al., J Biol Chem 279, 34827-34832 (2004)). When stated, 20 μM of Z-FF-FMK CatL specific inhibitor (Calbiochem, San Diego, Calif.) was added simultaneously with addition of LPS.

[1] = Table 2A, gene delivery into mice, t = 0
[2] = Table 2A, gene delivery into mice, t = 10 h
[3] = Table 2A, gene delivery into mice, t = 24 h
[4] = Table 5 Basic Phenotype, podocin-driven vectors, t = 14 h

Molecule | Protein in the urine (mice; [1]) [mg/mL] | Protein in the urine (mice; [2]) [mg/mL] | Protein in the urine (mice; [3]) [mg/mL] | proteinuria after gene delivery, in words (mice) | p40 generation from dynamin variant, in words (cathepsin L) | Protein in the urine (mice; Table 2A, gene delivery into mice, t = 10 h, listed as Dyn K44A) [mg/mL] | Protein in the urine (mice; Table 2A, gene delivery into mice, t = 10 h, listed as K44A) [mg/mL] | Protein in the urine (mice; Table 2A, gene delivery into mice, t = 24 h, listed as Dyn K44A) [mg/mL] | Protein in the urine (mice; Table 2A, gene delivery into mice, t = 24 h, listed as K44A) [mg/mL] | Protein in the urine (mice; [4]) [mg/mL] | Protein in the urine (mice; Table 2A, gene delivery into mice, t = 10 h, listed as Dyn R725A) [mg/mL]
dynWT: wild type dynamin overexpressed by adenovirus or delivered as dynamin 1 cDNA | 0.27 ± 0.06 | 0.37 ± 0.08 | 0.42 ± 0.12 | did not lead to increase of the protein in urine | resulted in generation of p40 | – | – | – | – | – | –
dynK44A: dominant-negative dynamin mutant that cannot bind GTP (protein, UniProt Q05193 1-864, looked up, variant K44A) Dynamin-1: MGNRGMEDLIPLVNRLQDAFSAIGQNADLDLPQIAVVGGQSAGASSVLENFVGRDFLPRGSGIVTRRPLVLQLVNATTEYAEFLHCKGKKFTDFEEVRLEIEAETDRVTGTNKGISPVPINLRVYSPHVLNLTLVDLPGMTKVPVGDQPPDIEFQIRDMLMQFVTKENCLILAVSPANSDLANSDALKVAKEVDPQGQRTIGVITKLDLMDEGTDARDVLENKLLPLRRGYIGVVNRSQKDIDGKKDITAALAAERKFFLSHPSYRHLADRMGTPYLQKVLNQQLTNHIRDTLPGLRNKLQSQLLSIEKEVEEYKNFRPDDPARKTKALLQMVQQFAVDFEKRIEGSGDQIDTYELSGGARINRIFHERFPFELVKMEFDEKELRREISYAIKNIHGIRTGLFTPDMAFETIVKKQVKKIREPCLKCVDMVISELISTVRQCTKKLQQYPRLREEMERIVTTHIREREGRTKEQVMLLIDIELAYMNTNHEDFIGFANAQQRSNQMNKKKTSGNQDEILVIRKGWLTINNIGIMKGGSKEYWFVLTAENLSWYKDDEEKEKKYMLSVDNLKLRDVEKGFMSSKHIFALFNTEQRNVYKDYRQLELACETQEEVDSWKASFLRAGVYPERVGDKEKASETEENGSDSFMHSMDPQLERQVETIRNLVDSYMAIVNKTVRDLMPKTIMHLMINNTKEFIFSELLANLYSCGDQNTLMEESAEQAQRRDEMLRMYHALKEALSIIGDINTTTVSTPMPPPVDDSWLQVQSVPAGRRSPTSSPTPQRRAPAVPPARPGSRGPAPGPPPAGSALGGAPPVPSRPGASPDPFGPPPQVPSRPNRAPPGVPSRSGQASPSRPESPRPPFDL | 0.23 ± 0.11 | – | – | – | did not result in detectable levels of p40 | 1.18 ± 0.22 | 1.18 | 0.77 ± 0.11 | 0.77 | 1.1 ± 0.26 | –
dynR725A: dynamin mutant (SEQ ID NO.4) with impaired GTP hydrolysis capacity (protein, listed as Homo sapiens) MGNRGMEDLIPLVNRLQDAFSAIGQNADLDLPQIAVVGGQSAGKSSVLENFVGRDFLPRGSGIVTRRPLVLQLVNATTEYAEFLHCKGKKFTDFEEVRLEIEAETDRVTGTNKGISPVPINLRVYSPHVLNLTLVDLPGMTKVPVGDQPPDIEFQIRDMLMQFVTKENCLILAVSPANSDLANSDALKVAKEVDPQGQRTIGVITKLDLMDEGTDARDVLENKLLPLRRGYIGVVNRSQKDIDGKKDITAALAAERKFFLSHPSYRHLADRMGTPYLQKVLNQQLTNHIRDTLPGLRNKLQSQLLSIEKEVEEYKNFRPDDPARKTKALLQMVQQFAVDFEKRIEGSGDQIDTYELSGGARINRIFHERFPFELVKMEFDEKELRREISYAIKNIHGIRTGLFTPDMAFETIVKKQVKKIREPCLKCVDMVISELISTVRQCTKKLQQYPRLREEMERIVTTHIREREGRTKEQVMLLIDIELAYMNTNHEDFIGFANAQQRSNQMNKKKTSGNQDEILVIRKGWLTINNIGIMKGGSKEYWFVLTAENLSWYKDDEEKEKKYMLSVDNLKLRDVEKGFMSSKHIFALFNTEQRNVYKDYRQLELACETQEEVDSWKASFLRAGVYPERVGDKEKASETEENGSDSFMHSMDPQLERQVETIRNLVDSYMAIVNKTVRDLMPKTIMHLMINNTKEFIFSELLANLYSCGDQNTLMEESAEQAQRADEMLRMYHALKEALSIIGDINTTTVSTPMPPPVDDSWLQVQSVPAGRRSPTSSPTPQRRAPAVPPARPGSRGPAPGPPPAGSALGGAPPVPSRPGASPDPFGPPPQVPSRPNRAPPGVPSRSGQASPSRPESPRPPFDL | 0.26 ± 0.13 | 0.58 | 0.20 ± 0.05 | – | completely abolished presence of the p40; also recorded: did not generate p40 | – | – | – | – | 0.88 ± 0.21 | 0.58 ± 0.17
dynL356Q, G358V: dynamin mutant (SEQ ID NO.3) not recognized by cathepsin L; ELSGGA mutated to EQSVGA (protein, listed as Homo sapiens) MGNRGMEDLIPLVNRLQDAFSAIGQNADLDLPQIAVVGGQSAGKSSVLENFVGRDFLPRGSGIVTRRPLVLQLVNATTEYAEFLHCKGKKFTDFEEVRLEIEAETDRVTGTNKGISPVPINLRVYSPHVLNLTLVDLPGMTKVPVGDQPPDIEFQIRDMLMQFVTKENCLILAVSPANSDLANSDALKVAKEVDPQGQRTIGVITKLDLMDEGTDARDVLENKLLPLRRGYIGVVNRSQKDIDGKKDITAALAAERKFFLSHPSYRHLADRMGTPYLQKVLNQQLTNHIRDTLPGLRNKLQSQLLSIEKEVEEYKNFRPDDPARKTKALLQMVQQFAVDFEKRIEGSGDQIDTYEQSVGARINRIFHERFPFELVKMEFDEKELRREISYAIKNIHGIRTGLFTPDMAFETIVKKQVKKIREPCLKCVDMVISELISTVRQCTKKLQQYPRLREEMERIVTTHIREREGRTKEQVMLLIDIELAYMNTNHEDFIGFANAQQRSNQMNKKKTSGNQDEILVIRKGWLTINNIGIMKGGSKEYWFVLTAENLSWYKDDEEKEKKYMLSVDNLKLRDVEKGFMSSKHIFALFNTEQRNVYKDYRQLELACETQEEVDSWKASFLRAGVYPERVGDKEKASETEENGSDSFMHSMDPQLERQVETIRNLVDSYMAIVNKTVRDLMPKTIMHLMINNTKEFIFSELLANLYSCGDQNTLMEESAEQAQRRDEMLRMYHALKEALSIIGDINTTTVSTPMPPPVDDSWLQVQSVPAGRRSPTSSPTPQRRAPAVPPARPGSRGPAPGPPPAGSALGGAPPVPSRPGASPDPFGPPPQVPSRPNRAPPGVPSRSGQASPSRPESPRPPFDL | 0.22 ± 0.06 | 0.33 ± 0.21 | 0.40 ± 0.15 | did not result in proteinuria | yielded no p40 | – | – | – | – | – | –
